What all share (test): SPR (Biacore T200); receptor immobilized directly on CM5 chip, antibody as analyte at 4.7 µM
In test [1] the target is Recombinant Human Fc gamma RIIA/CD32a (R167) Protein (R&D Systems), His-tagged (human) (UniProt P12318).
Test [2] concerns the target Recombinant Human Fc gamma RIIB/C (CD32b/c) Protein (R&D Systems), His-tagged (human) (UniProt P31994).
Test [3] concerns the target Recombinant Human Fc gamma RIIIA/CD16a protein (R&D Systems), His-tagged (human) (UniProt P08637).
In test [4] the target is Recombinant Human Fc gamma RIIIB/CD16b Protein (R&D Systems), His-tagged (human) (UniProt O75015).
Chain of Recombinant Human Fc gamma RIIIB/CD16b Protein (R&D Systems), His-tagged (human) (O75015 other isoform, or with tags, fused parts or gaps): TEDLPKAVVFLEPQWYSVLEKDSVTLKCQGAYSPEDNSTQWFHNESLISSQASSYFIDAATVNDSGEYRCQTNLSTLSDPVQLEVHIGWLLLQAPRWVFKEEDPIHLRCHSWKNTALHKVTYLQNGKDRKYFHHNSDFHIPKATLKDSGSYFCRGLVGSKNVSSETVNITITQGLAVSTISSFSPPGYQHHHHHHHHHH

Chain of Recombinant Human Fc gamma RIIA/CD32a (R167) Protein (R&D Systems), His-tagged (human) (P12318 other isoform, or with tags, fused parts or gaps): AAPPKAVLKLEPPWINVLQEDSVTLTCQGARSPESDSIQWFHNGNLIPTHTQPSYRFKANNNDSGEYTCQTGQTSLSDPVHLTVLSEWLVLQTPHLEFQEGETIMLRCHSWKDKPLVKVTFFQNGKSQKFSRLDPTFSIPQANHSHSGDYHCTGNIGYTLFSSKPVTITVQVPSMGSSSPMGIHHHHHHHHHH
Chain of Recombinant Human Fc gamma RIIB/C (CD32b/c) Protein (R&D Systems), His-tagged (human) (P31994 other isoform, or with tags, fused parts or gaps): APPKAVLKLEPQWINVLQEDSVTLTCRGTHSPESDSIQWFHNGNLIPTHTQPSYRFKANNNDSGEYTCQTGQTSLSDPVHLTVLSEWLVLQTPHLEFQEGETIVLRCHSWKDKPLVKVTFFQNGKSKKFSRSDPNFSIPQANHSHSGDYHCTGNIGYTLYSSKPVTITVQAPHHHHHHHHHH
Chain of Recombinant Human Fc gamma RIIIA/CD16a protein (R&D Systems), His-tagged (human) (P08637 other isoform, or with tags, fused parts or gaps): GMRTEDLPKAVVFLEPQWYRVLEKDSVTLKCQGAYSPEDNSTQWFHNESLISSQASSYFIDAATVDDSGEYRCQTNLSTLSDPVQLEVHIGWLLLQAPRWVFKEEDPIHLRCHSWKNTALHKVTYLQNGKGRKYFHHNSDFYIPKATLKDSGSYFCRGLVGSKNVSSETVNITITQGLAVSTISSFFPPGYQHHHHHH

As to “LALA variant of the anti-CD70 antibody vorsetuzumab (IgG1)”, the binding response (RU) was 64 RU in test [1], 18 RU in test [2], 100 RU in test [3] and 4.5 RU in test [4].
Regarding “LALA-DG variant of the anti-CD70 antibody vorsetuzumab (IgG1)”, the binding response (RU) in test [1] came to 8.3 RU.

For the origin of these results see patent US20240239915A1.
